Key:
[1] = target: T1, cynomolgus CD19 on CHO-K1 cells (WBP701.CHO-K1.cpro1.FL.C9) (cynomolgus monkey, UniProt A0A2K5W8L9 20-557); test: flow cytometry on cynomolgus CD19 CHO-K1 cells
T1 construct: whole, on cells; also called cynomolgus-CD19 expressing cell; WBP701.CHOK1.cPro1.C9
T1 sequence: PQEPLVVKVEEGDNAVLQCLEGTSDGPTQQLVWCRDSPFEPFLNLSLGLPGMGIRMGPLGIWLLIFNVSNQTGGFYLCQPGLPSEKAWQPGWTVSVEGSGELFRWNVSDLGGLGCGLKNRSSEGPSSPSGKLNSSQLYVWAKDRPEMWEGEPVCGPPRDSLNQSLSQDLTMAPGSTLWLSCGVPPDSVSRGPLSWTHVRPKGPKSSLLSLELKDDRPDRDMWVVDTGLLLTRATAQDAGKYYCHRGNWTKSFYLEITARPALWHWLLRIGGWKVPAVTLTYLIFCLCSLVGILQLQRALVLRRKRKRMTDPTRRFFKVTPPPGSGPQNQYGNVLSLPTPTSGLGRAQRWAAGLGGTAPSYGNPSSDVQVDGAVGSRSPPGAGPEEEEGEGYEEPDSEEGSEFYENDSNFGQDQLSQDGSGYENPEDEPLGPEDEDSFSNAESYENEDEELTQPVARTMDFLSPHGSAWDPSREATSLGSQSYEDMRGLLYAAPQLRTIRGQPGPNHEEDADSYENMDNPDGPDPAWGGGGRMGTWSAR
Experimental: Binding of the CD3×CD19 bispecific antibody to Cynomolgus CD19 target protein expressed on CHOK1 cells was determined by flow cytometry analysis. In brief, cynomolgus CD19 over-expressed stable cell line (WBP701.CHOK1.cPro1.C9, WuXi Biologics) were harvested with trypsin and diluted to 1×10⁶ cells/ml in 1% BSA/1×PBS. […] Antibodies serially diluted in 1% BSA/1×PBS were added at 100 ul/well to the pelleted cells and incubated at 4° C. for 1 hour. […] Cells were washed two times with 180 ul/well of 1% BSA/1×PBS by centrifugation at 1500 rpm for 5 minutes at 4° C. […] Cells were then washed two times as described above. After the final wash, cells were resuspended in 80 ul 1% BSA/1×PBS and fluorescence values were measured with a FACS Canto II cytometer (BD Biosciences). The amount of cell surface bound anti-CD19&CD3 bispecific antibody was assessed by measuring the mean fluorescence (MFI). The FACS raw data were analyzed by FlowJo software, wells containing no antibody or secondary antibody only were used to establish background fluorescence. Binding EC50 values were obtained by the four-parameter non-linear regression analysis using GraphPad Prism 5 software.

FcγRI = target: T2, FcγRI (UniProt P12314 16-288, limits assumed); test: SPR (Biacore), receptor captured on anti-his chip, 1:1 model
T2 construct: His-tagged by the capture method
Experimental: Antibody binding affinity to FcγRs was detected using Biacore T200 (or Biacore 8K). Each receptor was captured on an anti-his antibody immobilized CM5 sensor chip (GE). Antibodies at different concentrations were injected over the sensor chip at a flow rate of 30 uL/min for an association phase of 60 s, followed by 60 s dissociation. The chip was then regenerated by 10 mM glycine (pH 1.5) after each binding cycle.
The sensorgrams of blank surface and buffer channel were subtracted from the test sensorgrams. The experimental data was fitted by 1:1 model using Langmiur analysis (for FcγRI) or steady state model (for other receptors). A molecular weight of 150 KDa was used to calculate the molar concentration of antibodies.

[2] = target: T3, human CD3 on CD3+ Jurkat cells (human, UniProt P07766 23-207; P09693 23-182; P04234 22-171); test: affinity by flow cytometry on Jurkat cells (bound/free versus bound)
T3 construct: whole, on cells; also called CD3 positive Jurkat cells
Experimental: Binding affinity to CD3 and CD19 was determined by flow cytometry using Jurkat and Ramos cells, respectively. The cells were transferred in to 96-well U-bottom plates (BD) at a density of 5×10⁴ cells/well. Antibodies to be tested were 1:2-fold serially diluted in 1% 1×PBS/1% BSA and incubated with cells at 4° C. for 1 hr. Then, the plates were centrifuged at 1500 rpm for 4 mins and the supernatant discarded. […] The cells were washed once and re-suspended in 100 μL 1×PBS/1% BSA. Fluorescence intensity was measured by flow cytometry (BD Canto II) and analyzed by FlowJo. Fluorescence intensity was converted to bound molecules/cell based on the quantitative beads (Quantum™ MESF Kits, Bangs Laboratories). KD was calculated by Graphpad Prism5.
The bound IgG/free IgG versus bound IgG was plotted in FIGS. 46A and 46B.

FcRn = target: T4, FcRn (UniProt P55899 24-297; P61769 21-119, limits assumed); test: SPR at pH 6.0, antibody immobilized, FcRn injected, steady state model; pH 6.0
T4 construct: a molecular weight of 45 kDa was used
Experimental: Antibody binding affinity to FcRn was detected using Biacore T200 (or Biacore 8K). Each antibody was immobilized on CM5 sensor chip (GE). FcRn at different concentrations in running buffer (50 mM Na2HPO4/NaH2PO4, 150 mM NaCl, 0.05% Tween20, pH 6.0) were injected over the sensor chip at a flow rate of 30 uL/min for an association phase of 60 s, followed by 60 s dissociation. The chip was then regenerated by 1×PBS (pH 7.4) after each binding cycle.

[3] = target: T5, human PD-1 ECD mouse Fc fusion (W305-hPro1.ECD.mFc) (human, UniProt Q15116 25-170); test: dual binding ELISA, PD-1 ECD.mFc coated, detection with biotinylated CTLA-4 ECD.hFc; second antibody named, second value; PD-1 coated, biotinylated CTLA-4 detection
T5 construct: extracellular domain; In-house protein; also called hPD-1-ECD; human PD-1 coated on the plate
Experimental: In order to test whether the bispecific antibodies could bind to both hPD-1 and hCTLA-4, an ELISA assay was developed as below. A 96-well ELISA plate (Nunc MaxiSorp, ThermoFisher) was coated overnight at 4° C. with 0.5 μg/ml antigen-1 (hPD-1-ECD, W305-hPro1.ECD.mFc) in carbonate-bicarbonate buffer. After a 1 hour blocking step with 2% (w/v) bovine serum albumin (Pierce) dissolved in PBS, serial dilutions of the different PD-1×CTLA-4 bispecific antibodies in PBS containing 2% BSA PBS were incubated on the plates for 1 hour at room temperature. Following the incubation, plates were washed three times with 300 μL per well of PBS containing 0.5% (v/v) Tween 20. […] After washing the plates three times, Streptavidin-HRP (Lifetechnologies, #SNN1004) (1:20000 diluted) was added and incubated on the plates for 1 hour at room temperature. After washing six times with […] per well of PBS containing 0.5% (v/v) Tween 20, 100 μL tetramethylbenzidine (TMB) substrate was added for the detection per well. The reaction was stopped after approximately 5 minutes through the addition of […] per well of 2 M HCl. The absorbance of the wells was measured at 450 nm with a multiwall plate reader (SpectraMax® M5e).

T3 sequence (P07766 23-207, chain 1 of 3): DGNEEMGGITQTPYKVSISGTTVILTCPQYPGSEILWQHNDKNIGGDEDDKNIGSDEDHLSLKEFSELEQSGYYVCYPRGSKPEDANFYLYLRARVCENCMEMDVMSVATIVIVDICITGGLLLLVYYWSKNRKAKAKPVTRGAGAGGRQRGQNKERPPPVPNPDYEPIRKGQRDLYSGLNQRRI
T3 sequence (P09693 23-182, chain 2 of 3): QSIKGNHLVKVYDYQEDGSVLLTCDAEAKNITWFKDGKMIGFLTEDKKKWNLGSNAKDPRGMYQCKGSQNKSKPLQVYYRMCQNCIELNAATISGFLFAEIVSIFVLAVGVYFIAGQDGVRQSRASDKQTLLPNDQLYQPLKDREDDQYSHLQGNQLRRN
T3 sequence (P04234 22-171, chain 3 of 3): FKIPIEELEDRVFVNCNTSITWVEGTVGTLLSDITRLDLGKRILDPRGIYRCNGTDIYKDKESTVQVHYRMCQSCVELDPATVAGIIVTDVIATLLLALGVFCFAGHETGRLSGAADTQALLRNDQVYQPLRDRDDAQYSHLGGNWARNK
T4 sequence (P55899 24-297 limits assumed, chain 1 of 2): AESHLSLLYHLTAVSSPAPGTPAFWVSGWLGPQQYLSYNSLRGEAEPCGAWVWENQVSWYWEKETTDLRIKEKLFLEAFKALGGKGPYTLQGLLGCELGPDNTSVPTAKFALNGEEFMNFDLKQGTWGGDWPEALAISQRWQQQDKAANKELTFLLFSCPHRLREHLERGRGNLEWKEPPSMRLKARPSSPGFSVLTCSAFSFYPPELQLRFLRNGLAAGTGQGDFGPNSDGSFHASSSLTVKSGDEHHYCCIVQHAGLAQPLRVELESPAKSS
T4 sequence (P61769 21-119 limits assumed, chain 2 of 2): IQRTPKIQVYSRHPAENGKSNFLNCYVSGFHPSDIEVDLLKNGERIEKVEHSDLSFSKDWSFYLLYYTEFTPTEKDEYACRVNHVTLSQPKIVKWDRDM
T2 sequence (P12314 16-288 limits assumed): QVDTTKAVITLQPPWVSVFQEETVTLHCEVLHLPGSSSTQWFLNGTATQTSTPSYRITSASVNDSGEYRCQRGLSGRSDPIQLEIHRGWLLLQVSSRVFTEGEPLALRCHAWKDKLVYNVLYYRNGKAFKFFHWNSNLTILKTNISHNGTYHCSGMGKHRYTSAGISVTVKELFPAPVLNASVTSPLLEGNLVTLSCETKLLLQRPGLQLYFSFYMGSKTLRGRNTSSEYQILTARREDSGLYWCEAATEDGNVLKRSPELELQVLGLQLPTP
T5 sequence (Q15116 25-170): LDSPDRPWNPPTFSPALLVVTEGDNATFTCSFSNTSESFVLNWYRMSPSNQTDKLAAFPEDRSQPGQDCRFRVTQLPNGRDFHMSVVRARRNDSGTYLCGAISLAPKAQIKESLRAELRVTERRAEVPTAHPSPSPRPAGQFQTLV

Row | Binder | EC50 [1] [nM] | Kd (FcγRI) [nM] | Kd [2] [nM] | Kd (FcRn) [nM] | EC50 [3] [nM]
1 | W3438-T3U4.E17-1.uIgG4.SP, bispecific anti-CD3 x CD19 (bispecific antibody, also called E17-Design_2-QQQQ (IgG4); E17-IgG4; copies: 1 + 1 + 1 + 1) heavy 1: QVQLVQSGAEVKKPGSSVKVSCKASGFAFTDYYIHWVRQAPGQGLEWMGWISPGNVNTKYNENFKGRVTITADKSTSTAYMELSSLRSEDTAVYYCARDGYSLYYFDYWGQGTLVTVLEDLKNVFPPEVAVFEPSEAEISHTQKATLVCLATGFYPDHVELSWWVNGKEVHSGVCTDPQPLKEQPALQDSRYALSSRLRVSATFWQNPRNHFRCQVQFYGLSENDEWTQDRAKPVTQIVSAEAWGRYGPPCPPCPAPEFLGGPSVFLFPPKPKDTLMISRTPEVTCVVVDVSQEDPEVQFNWYVDGVEVHNAKTKPREEQFNSTYRVVSVLTVLHQDWLNGKEYKCKVSNKGLPSSIEKTISKAKGQPREPQVYTLPPCQEEMTKNQVSLWCLVKGFYPSDIAVEWESNGQPENNYKTTPPVLDSDGSFFLYSRLTVDKSRWQEGNVFSCSVMHEALHNHYTQKSLSLSLGK light 1: DIVMTQSPDSLAVSLGERATINCKSSQSLLNSRTRKNYLAWYQQKPGQPPKLLIYWASTRQSGVPDRFSGSGSGTDFTLTISSLQAEDVAVYYCTQSHTLRTFGGGTKVEIKPDIQNPDPAVYQLRDSKSSDKSVCLFTDFDSQTQVSQSKDSDVYITDKCVLDMRSMDFKSNSAVAWSQKSDFACANAFQNSIIPEDTFFPSPESS heavy 2: QMQLVQSGPEVKKPGTSVKVSCKASGYAFTSYNMYWVRQARGQRLEWIGYIDPYNGDTTYNQKFKGRVTITRDMSTSTAYMELSSLRSEDTAVYYCLTTAYAMDYWGQGTLVTVSSASTKGPSVFPLAPCSRSTSESTAALGCLVKDYFPEPVTVSWNSGALTSGVHTFPAVLQSSGLYSLSSVVTVPSSSLGTKTYTCNVDHKPSNTKVDKRVESKYGPPCPPCPAPEFLGGPSVFLFPPKPKDTLMISRTPEVTCVVVDVSQEDPEVQFNWYVDGVEVHNAKTKPREEQFNSTYRVVSVLTVLHQDWLNGKEYKCKVSNKGLPSSIEKTISKAKGQPREPQVCTLPPSQEEMTKNQVSLSCAVKGFYPSDIAVEWESNGQPENNYKTTPPVLDSDGSFFLVSRLTVDKSRWQEGNVFSCSVMHEALHNHYTQKSLSLSLGK light 2: DIQLTQSPSFLSASVGDRVTITCSASSTVNYMHWYQQKPGKAPKLLIYSTSNLASGVPSRFSGSGSGTEFTLTISSLQPEDFATYYCHQWSSYPYTFGQGTKLEIKRTVAAPSVFIFPPSDEQLKSGTASVVCLLNNFYPREAKVQWKVDNALQSGNSQESVTEQDSKDSTYSLSSTLTLSKADYEKHKVYACEVTHQGLSSPVTKSFNRGEC | 26 | 9.79 | 9 | 2580 | 
2 | W3248-U6T5.G25-1.uIgG4.SP, bispecific anti-PD-1 x CTLA-4 (bispecific antibody, IgG4 (S228P); also called WBP3248-U6T5.G25-1-uIgG4.SP; U6T5.G25.IgG4) heavy: not shown light 1: SYELTQPLSVSVALGQTARITCGGDNIGNKDVHWYQQKPGQAPVLVIYRDSNRPSGIPEGFSGSNSGNTATLTISRAQAGDEADYYCQVWDSIWVFGGGTKLTVLPDIQNPDPAVYQLRDSKSSDKSVCLFTDFDSQTQVSQSKDSDVYITDKCVLDMRSMDFKSNSAVAWSQKSDFACANAFQNSIIPEDTFFPSPESS light 2: EIVLTQSPDFQSVTPKEKVTITCSANSALSYMYWYQQKPDQSPKLWVHGTSNLASGVPSRFSGSGSGTDFTLTINSLEAEDAATYYCHHWSNTQWTFGGGTKVEIKRTVAAPSVFIFPPSDEQLKSGTASVVCLLNNFYPREAKVQWKVDNALQSGNSQESVTEQDSKDSTYSLSSTLTLSKADYEKHKVYACEVTHQGLSSPVTKSFNRGEC |  |  |  |  | 0.071
